{
  "source": "patent US11311631B2",
  "about": "“Paclitaxel-albumin-binding agent compositions and methods for using and making the same” (Mayo Foundation for Medical Education and Research, priority 2016, dated 2022)",
  "biological_target": "T1, CD20+ Daudi lymphoma cells (Homo sapiens, UniProt P11836)",
  "T1 construct": "co-incubated with CD20+ Daudi lymphoma cells for 30 minutes at room temperature; endogenous in cells; host or cells: Daudi lymphoma cells",
  "T1 sequence (P11836 1-297)": "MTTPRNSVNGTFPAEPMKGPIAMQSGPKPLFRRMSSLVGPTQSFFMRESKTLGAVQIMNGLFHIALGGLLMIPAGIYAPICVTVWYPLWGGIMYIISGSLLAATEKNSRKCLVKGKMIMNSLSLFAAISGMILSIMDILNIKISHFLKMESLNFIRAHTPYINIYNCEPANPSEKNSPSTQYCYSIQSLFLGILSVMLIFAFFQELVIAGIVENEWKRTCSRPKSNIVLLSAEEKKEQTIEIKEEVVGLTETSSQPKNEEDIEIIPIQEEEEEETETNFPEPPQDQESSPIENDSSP",
  "experiment": "Daudi cell CD20 blocking (subsequent PE anti-human CD20 staining)",
  "format": "cell-based",
  "conditions": "co-incubated with CD20+ Daudi cells 30 minutes at room temperature",
  "method": "[…] show blocking of CD20-positive Daudi cells with isotype control (FIG. 5A), anti-CD20 antibody (FIG. 5B), ABRAXANE® (FIG. 5C), AR160 (FIG. 5D), NTP (FIG. 5E), rituximab-bound NTP (NTRit; FIG. 5F), or rituximab alone (FIG. 5G).\nABX, AR160, Non-toxic nanoparticle (NTP) and rituximab-bound NTP were prepared as described above or previously (see, e.g., PCT Pub. No. WO2014/055415, which is incorporated herein by reference in its entirety). The nanoparticles and unlabeled rituximab were co-incubated with CD20+ Daudi lymphoma cells for 30 minutes at room temperature. The cells were washed and subsequently stained with PE anti-human CD20. Isotype (FIG. 5A) and anti-CD20 (FIG. 5B) stained cells served as negative and positive controls, respectively.",
  "data": [
    {"substance": "rituximab: anti-CD20 antibody (Rituxan)", "values": [
      {"measurement": "blocking of subsequent binding of PE anti-human CD20", "value": "block subsequent binding of PE anti-human CD20"}
    ]}
  ]
}
